This is an account of results in the RNAGym collection of RNA variant scans (doi:10.7554/elife.80360).

B1: Twister Ribozyme (parent)
chain: AACACUGCCAAUGCCGGUCCCAAGCCCGGAUAAAAGUGGAGGGGGCGG

The data set covers variants of B1. Nature of the data set: self-cleavage, relative activity (ratio to wild type); higher = more cleavage; co-transcriptional.
On to AACACUGCCAAUGCCGGUCCUAAGCCCGGAUAAAAGUGGAGGGGGCGC [C21U G48C], for which the self-cleavage was found to be 0.133.

Turning to AACACUGCCAAUGCCGGUCCCGAGCCCGGAUAAAAGUGGAGGGGGCGU [A22G G48U], the self-cleavage turned out to be 0.334.

Regarding AACACUGCCAAUGCCGGUCCCGAGCCCUGAUAAAAGUGGAGGGGGCGG [A22G G28U], the self-cleavage worked out at 0.197.

In the case of AACACUGCCAAUGCCGGUCCCGAGCCCCGAUAAAAGUGGAGGGGGCGG [A22G G28C], the self-cleavage stood at 0.215.

As to AACACUGCCAAUGCCGGUCCCGAGCCCAGAUAAAAGUGGAGGGGGCGG [A22G G28A], the self-cleavage was determined as 0.128.

For AACACUGCCAAUGCCGGUCCUAAGCCCGGAUAAAAGUGGAGGGAGCGG [C21U G44A], the self-cleavage is 0.126.

On to AACACUGCCAAUGCCGGUCCUAAGCCCGGAUAAAAGUGGAGGGCGCGG [C21U G44C], for which the self-cleavage was 0.0722.

Consider AACACUGCCAAUGCCGGUCCUAAGCCCGGAUAAAAGUGGAGGGGCCGG [C21U G45C], for which the self-cleavage turned out to be 0.0779.

Turning to AACACUGCCAAUGCCGGUCCUAAGCCCGGAUAAAAGUGGAGGGGACGG [C21U G45A], the self-cleavage stood at 0.123.

As to AACACUGCCAAUGCCGGUCCCCAGCCCGGAUAGAAGUGGAGGGGGCGG [A22C A33G], the self-cleavage amounted to 0.802.

On to AACACUGCCAAUGCCGGUCCCGCGCCCGGAUAAAAGUGGAGGGGGCGG [A22G A23C], for which the self-cleavage was 0.115.

With AACACUGCCAAUGCCGGUCCCGUGCCCGGAUAAAAGUGGAGGGGGCGG [A22G A23U], the self-cleavage is 0.0557.

AACACUGCCAAUGCCGGUCCUAAGCCCGGAAAAAAGUGGAGGGGGCGG [C21U U31A]: the self-cleavage was 0.105.

Take AACACUGCCAAUGCCGGUCCUAAGCCCGGACAAAAGUGGAGGGGGCGG [C21U U31C]: the self-cleavage was 0.103.

Consider AACACUGCCAAUGCCGGUCCCCAACCCGGAUAAAAGUGGAGGGGGCGG [A22C G24A], for which the self-cleavage is 0.131.

As for AACACUGCCAAUGCCGGUCCCCACCCCGGAUAAAAGUGGAGGGGGCGG [A22C G24C], the self-cleavage worked out at 0.0817.

Consider AACACUGCCAAUGCCGGUCCCCAUCCCGGAUAAAAGUGGAGGGGGCGG [A22C G24U], for which the self-cleavage turned out to be 0.0876.

For AACACUGCCAAUGCCGGUCCCCAGCCAGGAUAAAAGUGGAGGGGGCGG [A22C C27A], the self-cleavage is 0.768.

For the variant AACACUGCCAAUGCCGGUCCCCAGCCGGGAUAAAAGUGGAGGGGGCGG [A22C C27G], the self-cleavage came out at 0.101.

With AACACUGCCAAUGCCGGUCCUAAGCCCGGAUAAAAGUGAAGGGGGCGG [C21U G39A], the self-cleavage worked out at 0.0714.

As for AACACUGCCAAUGCCGGUCCCGAGCCCGGAUAAAAGUGGAGGGGGCCG [A22G G47C], the self-cleavage came to 0.128.

For the variant AACACUGCCAAUGCCGGUCCCGAGCCCGGAUAAAAGUGGAGGGGGCUG [A22G G47U], the self-cleavage is 0.136.

Turning to AACACUGCCAAUGCCGGUCCCGAGCCCGGAUAAAAGUGGAGGGGGCAG [A22G G47A], the self-cleavage came out at 0.184.

In the case of AACACUGCCAAUGCCGGUCCCCUGCCCGGAUAAAAGUGGAGGGGGCGG [A22C A23U], the self-cleavage amounted to 0.243.

Regarding AACACUGCCAAUGCCGGUCCUAAGCCUGGAUAAAAGUGGAGGGGGCGG [C21U C27U], the self-cleavage came to 0.104.

As for AACACUGCCAAUGCCGGUCCCGAGACCGGAUAAAAGUGGAGGGGGCGG [A22G C25A], the self-cleavage worked out at 0.0752.

Consider AACACUGCCAAUGCCGGUCCCGAGGCCGGAUAAAAGUGGAGGGGGCGG [A22G C25G], for which the self-cleavage stood at 0.0838.

As for AACACUGCCAAUGCCGGUCCCGAGCCCGGAUAAAAGUGGAGCGGGCGG [A22G G42C], the self-cleavage was 0.0934.

With AACACUGCCAAUGCCGGUCCCGAGCCCGGAUAAAAGUGGAGAGGGCGG [A22G G42A], the self-cleavage stood at 0.0942.

AACACUGCCAAUGCCGGUCCCCAGCCCGGAUAAAAGUGGAGGGUGCGG [A22C G44U]: the self-cleavage is 0.967.

For AACACUGCCAAUGCCGGUCCCCAGCCCGGAUAAAAGUGGAGGGCGCGG [A22C G44C], the self-cleavage came to 0.905.

In the case of AACACUGCCAAUGCCGGUCCCGAGCCCGGAUAAAUGUGGAGGGGGCGG [A22G A35U], the self-cleavage was determined as 0.313.

For the variant AACACUGCCAAUGCCGGUCCCGAGCCCGGAUAAACGUGGAGGGGGCGG [A22G A35C], the self-cleavage came out at 0.195.

Take AACACUGCCAAUGCCGGUCCCGAUCCCGGAUAAAAGUGGAGGGGGCGG [A22G G24U]: the self-cleavage stood at 0.0699.

For the variant AACACUGCCAAUGCCGGUCCCGAACCCGGAUAAAAGUGGAGGGGGCGG [A22G G24A], the self-cleavage came out at 0.114.

AACACUGCCAAUGCCGGUCCUAAGCCCGGAUAAAAGUGGAGGGGGUGG [C21U C46U]: the self-cleavage was found to be 0.0929.

For the variant AACACUGCCAAUGCCGGUCCCCAGCCCGGAUAAUAGUGGAGGGGGCGG [A22C A34U], the self-cleavage amounted to 0.872.

Consider AACACUGCCAAUGCCGGUCCCCAGCCCGGAUAACAGUGGAGGGGGCGG [A22C A34C], for which the self-cleavage was 0.169.

AACACUGCCAAUGCCGGUCCCCAGCCCGGAUAAGAGUGGAGGGGGCGG [A22C A34G]: the self-cleavage came to 0.912.

As to AACACUGCCAAUGCCGGUCCCGAGCCCGGAUAAAAGUGGACGGGGCGG [A22G G41C], the self-cleavage amounted to 0.133.

In the case of AACACUGCCAAUGCCGGUCCCGAGCUCGGAUAAAAGUGGAGGGGGCGG [A22G C26U], the self-cleavage amounted to 0.101.

With AACACUGCCAAUGCCGGUCCUAAGCCCGGAUAAAAGUUGAGGGGGCGG [C21U G38U], the self-cleavage turned out to be 0.0705.

Consider AACACUGCCAAUGCCGGUCCUAAGCCCGGAUAAAAGUGGAGGGGGCAG [C21U G47A], for which the self-cleavage came to 0.123.

In the case of AACACUGCCAAUGCCGGUCCUAAGCCCGGAUAAAAGUGGAGGGGGCCG [C21U G47C], the self-cleavage came to 0.0939.

As for AACACUGCCAAUGCCGGUCCCGAGCCUGGAUAAAAGUGGAGGGGGCGG [A22G C27U], the self-cleavage worked out at 0.111.

AACACUGCCAAUGCCGGUCCCGAGCCGGGAUAAAAGUGGAGGGGGCGG [A22G C27G]: the self-cleavage is 0.084.

For the variant AACACUGCCAAUGCCGGUCCCCAGCCCGGAUAAACGUGGAGGGGGCGG [A22C A35C], the self-cleavage was determined as 1.01.

Consider AACACUGCCAAUGCCGGUCCCCAGCCCGGAUAAAGGUGGAGGGGGCGG [A22C A35G], for which the self-cleavage is 1.02.

In the case of AACACUGCCAAUGCCGGUCCUAAGCCCGGAUAAAAAUGGAGGGGGCGG [C21U G36A], the self-cleavage is 0.0555.

As to AACACUGCCAAUGCCGGUCCUAAGCCCGGAUAAAACUGGAGGGGGCGG [C21U G36C], the self-cleavage is 0.0754.

AACACUGCCAAUGCCGGUCCCCAGCCCGAAUAAAAGUGGAGGGGGCGG [A22C G29A]: the self-cleavage came to 1.01.

Consider AACACUGCCAAUGCCGGUCCCCAGCCCGUAUAAAAGUGGAGGGGGCGG [A22C G29U], for which the self-cleavage was found to be 0.89.

Consider AACACUGCCAAUGCCGGUCCCGAGCCCGGGUAAAAGUGGAGGGGGCGG [A22G A30G], for which the self-cleavage stood at 0.394.

Take AACACUGCCAAUGCCGGUCCCGAGCCCGGUUAAAAGUGGAGGGGGCGG [A22G A30U]: the self-cleavage worked out at 0.316.
